The chains are these.
B1: RAD51-associated protein 1 (Homo sapiens), Q96B01-2 (parent)
chain: MVRPVRHKKPVNYSQFDHSDSDDDFVSATVPLNKKSRTAPKELKQDKPKPNLNNLRKEEIPVQEKTPKKRMALDDKLYQRDLEVALALSVKELPTVTTNVQNSQDKSIEKHGSSKIETMNKSPHISNCSVASDYLDLDKITVEDDVGGVQGKRKAASKAAAQQRKILLEGSDGDSANDTEPDFAPGEDSEDDSDFCESEDNDEDFSMRKSKVKEIKKKEVKVKSPVEKKEKKSKSKCNALVTSVDSAPAAVKSESQSLPKKVSLSSDTTRKPLEIRSPSAESKKPKWVPPAASGGSRSSSSPLVVVSVKSPNQSLRLGLSRLARVKPLHPNATST
partner: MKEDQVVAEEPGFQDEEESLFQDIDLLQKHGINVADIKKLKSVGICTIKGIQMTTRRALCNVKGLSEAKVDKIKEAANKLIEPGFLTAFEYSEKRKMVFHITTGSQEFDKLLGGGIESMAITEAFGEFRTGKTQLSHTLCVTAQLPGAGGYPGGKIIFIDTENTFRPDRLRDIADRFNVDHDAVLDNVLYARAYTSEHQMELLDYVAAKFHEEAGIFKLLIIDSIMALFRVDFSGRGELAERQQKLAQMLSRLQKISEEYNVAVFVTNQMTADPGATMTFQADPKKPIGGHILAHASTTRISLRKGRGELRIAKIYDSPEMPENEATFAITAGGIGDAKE

Variants of B1 are the subject of the experiment. The settings on record: with dmc1_human DMC1, Q14565.
Regarding MVRPVRHKKPVNYSQFDHSDSDDDFVSATVPLNKKSRTAPKELKQDKPKPNLNNLRKEEIPVQEKTPKKRMALDDKLYQRDLEVALALSVKELPTVTTNVQNSQDKSIEKHGSSKIETMNKSPHISNCSVASDYLDLDKITVEDDVGGVQGKRKAASKAAAQQRKILLEGSDGDSANDTEPDFAPGEDSEDDSDFCESEDNDEDFSMRKSKVKEIKKKEVKVKSPVEKKEKKSKSKCNALVTSVDSAPAAVKSESQSLPKKVSLSSDTTRKPLEIRSPSAESKKPKAVPPAASGGSRSSSSPLVVVSVKSPNQSLRLGLSRLARVKPLHPNATST [W287A], the “effect of a mutation on the interaction” value is given as “disrupting interaction”.

For the origin of these results see IntAct's records for PubMed 21903585.
